Test [1] deals with putative IBC-1 receptor on G361 melanoma cells, moderately high affinity binding site. Kind of test: Scatchard analysis of AP-IBC-1 binding to G361 melanoma cells (bound AP activity).
Test [2] addresses putative IBC-1 receptor on G361 melanoma cells, much lower affinity binding site. Described as above.

Broadly, the Kd is the constant that tells how readily two partners part at equilibrium. Read a high Kd as weaker binding.

For the substance “alkaline phosphatase-IBC-1 (AP-IBC-1) fusion protein (from UniProt P81605 20-110) (ligand)”, the Kd in test [1] came to 37.5 nM; in test [2], 360 nM. For the same substance, the binding sites/cell (binding sites/cell) stood at 17000 in test [1] and 350000 in test [2].

The values are drawn from US20040224363A1.
